These sequences were tested on Saccharomyces cerevisiae (assay: transcriptional activation domain activity (GFP:mCherry ratio, weighted mean of sorted bins, harmonized to initial dataset scale) (arbitrary fluorescence ratio units); higher = stronger transcriptional activation). Conditions: beta-estradiol 1 µM; induction time 4 h.
In short: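 Values are activation activity, found as the read-weighted mean of bin median fluorescence, averaged across barcodes and then mapped linearly onto the initial dataset scale. Barcoded protein tiles fused to an estradiol-inducible synthetic transcription factor were integrated at the URA3 locus of GFP-reporter yeast diploids. Cells were induced for 4 hours at 30 °C with 1 uM beta-estradiol in SC, sorted into 8 bins by GFP:mCherry ratio, and barcode-sequenced, with tiles under 50 reads discarded.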

Sequence	transcriptional activation domain activity
YIQDIQCLQFENGGVGRMELEAKHWMIYHGILLAKILRLLEDSPLKRFTIVNA	47800
FLVCLLTMEFILHYMYVVAIQGAKAWHGDTPLELSMIGFWNLIVVWLKLLLPW	18200
ESLKHHEGINMVWKKFQSIFRIIEGIVYYEPVYRAFVRHILHHLHLDNVLWVD	70300
QQTGKGKIHRQYALVVVGNGDGLVGYGEGKDEELPRASDKAFAAAVRNMDHVE	43700
EQSGNGDINNGTRNDIEINLYRSHPTMIMSKVMKREVKPLSENYIIIQDCFLK	62500
KKEKAEKNKQQSKGQGQGEGDKEQKKEGEGEGEGGKDARAKGEKDGKDEKGAK	46400
MLCDATSGLWILLCFFFFCVVLFVLIVSVFSTLPMWMSYSFFFLFVGFDLLLS	35600
MSLASLAAQRSNCMKRRVGCVVVRDKRVVSTGYNGTPRGLRNCGEGGCGRCNE	21100
DFWDYLIVSLVPSLCVFFVRYFMFMVLFIVVGYFIPLLMCYMSYSIIRYPLFH	43400
LLQSLKRTTEIPVKDAFLGLLRADACFCIYRMLRCTNVNLPICRLTGLLDVIR	61400
TGRLQFKWAFVPYILARFVLLGQLLALTLVLRNLQTLIHCGKVLRWLTIVSNV	60000
EHRVMSAKIKAGELIDNGRFVDEKSFEKPPIHFHLICDHNIRVLLIIIHHSLY	21300
MLMTKYMCKGSRLIFIFFCVFRLSMLFTFFSIVSDSCLYWCRVISYLVLLMTL	63700
ALRLCRSLLFLCFPFTPIHFFWGSYSDFPPFFFLPAFPRLTLSLLLFYLLPFS	55100
ANRRMSLVCFLFIVVRYVSIAALVLNGVGFYGTMFDMDSCTHFRLAPPVTKMV	44900
EETVTAEPAAVEEKDGGDDAMAIDTEEPKKKSKKDKKDKKRKAAAETTTATGT	40600
AGQILANQVIITNLTNFIYSITPLPVRYYYLLEMLKFIFFLFMLGMLPLALCA	52400
LHFLSIDITSPFLPLDILPDLWATMWPWIRLIDSYWDSLPTLHEWFPSIQIYT	57500
IQEEVKAKKKRKSRKGAKEEGEASPAESSESDGEQEKPKKKASRKKKRPKVEG	27600
VYYFWVRIFVFSFRSTCFCIFLFYYLYLFFLFIFLYLTSSFSSFHHLSLLLVV	57800
MLKLFWTISKVFGPSDLTLQERGHYMELIIALRFIQGWWQDRDLNGFLPLWVR	65000

Sequence	transcriptional activation domain activity
MRAVDIPSLAFNAVGVSNHGIQQMPVAEFATVMKSLVTILLKSMPLDKEKRYQ	38900
SFVRDVGFFIVSASFSLVFLWDGKLYFWECVTMVGFYVFYVIFVMAWHWWLGR	43100
MFESVNLDENSPEDRELAKVLSPPGSYLSPASLDSGSSFTNSGTSTSCFEPKN	32400
VVFNQIWIYFFIYTMIFICLILVAFYTVLLVLLIHPKKIPHNTRTVLNVYRAR	66100
MQTKVFVFPLFLHYLYCVIFHLLWILFGIAFIFSLVSIIIYLLIVFAHLFHFV	66700
TLPQEDTQSTEDTKVEKKLVIASLLSRMLIPTIIMAPLLALTAKFVPVSILDD	52400
PKKEEPKRRSASRKRGSIFGGSLFGKKEEAKKEEEKPVEAAAETKAAETEAPA	30700
MSEPPRKRAKLACVTCNARRVKCDVTDRHPCTNCAAGNVECETRESRRGKHVR	14300
MPASSSTAAASPGNSHNVVGVHYKVGKKIGEGSFGIIYEGKQKEERTNLLNNQ	35300
ESSLSDKAEPKKEDSGKMAEAPKPAPEPKKEPKKEESKPAAKQESKKEVEEKA	35200
AAAVAAKKPEEKKEETPAEAATEAPKEEAKEEKKEEKAATKSRSQSRKRTSIF	< 6570
MFLEGVLQFVFFFFFFFPVYLSTFIFKFLAVGFLGSYLFLLVQLMQLIHSLIL	31900
RGAARCFCVYFFLSLWHFYENHIFFFCSLFFHSLLLCHFFFSFFCVALRLLAC	33800
NTTTPDAAEGDAEGEDSASASGSGSEGKGGEGEEKTGKKGKKGRKGKLLQRLK	29500
RYPFILFPFYSLLSHFLLLLTEIALCLKYCLLLSLCSPILLFLLVFLLLAFCL	47600
MCVWELVLVLVVWCFRCFSFFHPLHFLPWLLYPSPLISLFFCLFYPLLFFVFF	37900
TARVSEAKPARGRPSSAKAESPAVEAAPAVKKRGRGRPSKTKPETEEEEEAVP	39600
EDENKSKEETQEKKTNEPELNENNKDIAKKGEEEEEEEEADKDNNKTKKKKKN	27500
GNTVAIFVPFWEYCVLFPSELRIWKRMLRARPFRWHFAPIMTIILRYLLIIFA	45200
GLRDNVIENRQGKKGAGKAAAAGGAGAAAANTNAATGGKAAKAAKAAAAGGSG	48900
ANHQVYADWWYAWCLTYYTGTYKDVFIVLKKSLKWVPVLGWGMQSFRFIFLAR	79000

Sequence	transcriptional activation domain activity
RKPEAAAEKTAEAPEATGGEGTRRRASGRGRGRGRNGRGGRSGRAEGEEKKDE	31500
STHRIRCRNAEEPGGRARCRLVVGRRAPAGARDEVPSHFSEEELVASVVGVVV	73000
LASISSLQSSQSLDQNFSIPQSPPLSSMSFNFLTGNINETNQNHSNHQHSKSG	22700
RTESYDHMEPVGVDPRWDAFGPFHDYLLQAFPLVHSTLSLTKVNTWGLVYVWP	47400
MASASLASKQSIRPHRKSRTGCSTCKRRKVKSLAVVGAGLGRSGQVTAGSPTG	54100
LVSHTVFKIIAICRHYAPPDGYMLAYVLCSSFALASTLWCTLLIICRIVILVQ	39100
EGEVTTTSSEEETTTEEETTRTRPTRTTTTEEEQTTTDASSTTTSQDEETTTP	39200
SRSRSRDRHRRSSRRHRRRSPSASRSRSASRSRRRRHSKRRSREKRHSSRRHR	30200
SFTNFLMALFGVLLGAIFLSIYTYYTFWRGCRSTILPCISSTWYKAFTILFYL	47600
SSSSSSREDGEASDASSSSRDSRRRRRRSTSRDKRPAAESKAATEPAAAKPRN	30000
EPIQNEIAKLFHSGGDSVVDILFSQTSATEFVTVGGTGNVYHWDMEYSFSRND	67800
YCLLYWVWWFLAFSCWVFCLIYIFAIHCLIWVLVWLSVCFLLMGGYLFFCKED	30600
LFICRYTSDGQFIGNQNGCYNLVPVYDWIKRCVISIFVVFFIAFLPLFLQELC	56900
RLIYGDYVSYHFLKMLHKVHDQISLAYIHHGLELVMWSCKVLVLLFKQLFESY	67900
MAPAPAPVAAPPAPETREAPPASPRGRSRSRSRSPAFRRPSPPAPRRPVGAPA	29100
SLWCLVIFPCSLVFLGLVGPVLSWFFLSFLFSWLIGRLVLYLILFLLFVTDWA	22000
KRKDGNGGAGREMKRGERDASPAKGKGASAARGRGGRGRGGRRGGSRGGKKRG	32600
HGSTLTTIMIQVSEVMILPSFFQELLDTIRTRCPRVVNFMIWFQVWNWMMVPV	73300
RLWQLILCKLEHFHLGFFLLGSVNNIYFTYKILNDMFDIVLLGQDQQDNDDEL	60000
PTCALLSLQPVLPSPFGPPSSLLPVTSLFYLSPPSLLCILALSSFLLILPLLF	38800
LNILILGSVLTDFDTLLRPETMQWNPPLGVWLIWWMQWQMFIPLLILQFLNLY	55400

Sequence	transcriptional activation domain activity
PPPARAARPARRRGRGCQRRMSSRLCRGREGGGGGGVRLPVQVGVVMVVQLGR	73100
MHFVWLYHPFAKYGDFYLILSFTYLRTITDCCSCCIMTTYGMLRIFPIFVILV	79100
TLHVCFVEMRLADVVVDFLSRCSATINLAFFDTRLWHPNLLPILGALPLQRLS	87200
CFALVVAFGISRNTLLVKAFRCIQYCLSKMSYCLATRLQCCPEYSCYIHQPGD	75300
FLDVSTSYDIGNPPSISDDLLDLSIFTAQNFQSPSIDFRRVKLMHDFLDVSRF	125000
ARVLGKKNTLEGLASTIRGTVRFVRETCYAVIYCMTRLDMQFYGFLELPGPLA	39600
AIEQFLDNLISQDMMSSNASMNSESHLHIRSPKKQHRYTELNQRYPETHPHSN	8240
MFLGFFFLFFYLFIMDHILDFWLLLRIIILIFAYSHCSFLRTLILFFRINFFF	69000
SRPPRPSASSSTTPRARSRSTARPSRARWPRPRCPSSGGCTRACRTRRCTRRM	45300
ELVVLRFWSLKAIVFFFVLVLQTVSLGAGKGGGLYKDLFTLFLHILCILELCC	61300
MSRCNSSMFMSMFDSLGLFLFVIFIFLFFELHSFWWDLFSLFFVFVWFNFSIS	41400
REQQQRNDFPEGTHRMKVVAERWKTLSDDQREISFISSLLYAYVHVELRLRLG	46500
PHTYNVILFLVIHDPEADVINRVKAYVTYVLRTMPKQLRLESFEMVFIRVLHL	54600
NILKLPSMVDGSQHCDISKFIVAAAHKIVTPDVSPRGWVLLKLLRSYIELDMY	29100
MSPSGAVPSTAQVVPGACVNIVLKADQRTGRQVSGTVRDVLTRGDHHRGIKVR	41300
LYLSLLKRKTTIWFFVYVVLQNYFLSTLYGRNWFFLFSSQHAPTWSIWLLAFI	57300
YISHSRCLLVFPVLPFFVHYLLFVFSFALLQIIALEILSLVLFVLDLLSLFPH	32800
DKKEAKPVNGESSKDTKPSGKEKEKELKDNAKPKEAKKGEGNKGGLAKAAAAP	25800
MDISFFMLFVFDDFFLYSYFFFPSPRPLSNDATLIHIVCILFIILVGLTIVLL	36800
AEKEAEPEKEAGSESPQKKITPMKRGRGRPKRGGGAAGASSPEPAAVVVVAER	14700
